# From patent publication US20150344570A1 (published 2015)
# B1: GpH7-A5/GpH7-B3 variant S267_07I/GpL16-k0 (antibody, human IgG1, kappa)
# heavy 1: not shown
# heavy 2: not shown
# light: DIVMTQSPLSLPVTPGEPASISCQASESLVHSNRNTYLHWYLQKPGQSPQLLIYKVSNRFSGVPDRFSGSGSGTDFTLKISRVEAEDVGVYYCSQNTHVPPTFGQGTKVEIERTVAAPSVFIFPPSDEQLKSGTASVVCLLNNFYPREAKVQWKVDNALQSGNSQESVTEQDSKDSTYSLSSTLTLSKADYEKHKVYACEVTHQGLSSPVTKSFNRGEC
# notes: Heterodimerized anti-glypican-3 IgG1; mutation in the GpH7-B3 chain only; also called He Ab
# B2: GpH7-A5/GpH7-B3 variant V266_08L/GpL16-k0 (antibody, human IgG1, kappa)
# heavy 1: not shown
# heavy 2: not shown
# light: B1 light
# notes: as for B1
# B3: GpH7-A5/GpH7-B3 variant V266_04F/GpL16-k0 (antibody, human IgG1, kappa)
# heavy 1: not shown
# heavy 2: not shown
# light: B1 light
# notes: as for B1
# B4: GpH7-A5/GpH7-B3 variant S267_12R/GpL16-k0 (antibody, human IgG1, kappa)
# heavy 1: not shown
# heavy 2: not shown
# light: B1 light
# notes: as for B1
# B5: GpH7-A5/GpH7-B3 variant V266_07I/GpL16-k0 (antibody, human IgG1, kappa)
# heavy 1: not shown
# heavy 2: not shown
# light: B1 light
# notes: as for B1
# B6: GpH7-A5/GpH7-B3 variant V266_11K/GpL16-k0 (antibody, human IgG1, kappa)
# heavy 1: not shown
# heavy 2: not shown
# light: B1 light
# notes: as for B1
# B7: GpH7-A5/GpH7-B3 variant S267_10E/GpL16-k0 (antibody, human IgG1, kappa)
# heavy 1: not shown
# heavy 2: not shown
# light: B1 light
# notes: as for B1
# B8: GpH7-A5/GpH7-B3 variant S267_14T/GpL16-k0 (antibody, human IgG1, kappa)
# heavy 1: not shown
# heavy 2: not shown
# light: B1 light
# notes: as for B1
# B9: GpH7-A5/GpH7-B3 variant S267_19Q/GpL16-k0 (antibody, human IgG1, kappa)
# heavy 1: not shown
# heavy 2: not shown
# light: B1 light
# notes: as for B1
# B10: GpH7-A5/GpH7-B3 variant S267_09D/GpL16-k0 (antibody, human IgG1, kappa)
# heavy 1: not shown
# heavy 2: not shown
# light: B1 light
# notes: as for B1
# B11: GpH7-A5/GpH7-B3 variant S267_11K/GpL16-k0 (antibody, human IgG1, kappa)
# heavy 1: not shown
# heavy 2: not shown
# light: B1 light
# notes: as for B1
# B12: GpH7-A5/GpH7-B3 variant Y300_10E/GpL16-k0 (antibody, human IgG1, kappa)
# heavy 1: not shown
# heavy 2: not shown
# light: B1 light
# notes: as for B1
# B13: GpH7-A5/GpH7-B3 variant V266_06M/GpL16-k0 (antibody, human IgG1, kappa)
# heavy 1: not shown
# heavy 2: not shown
# light: B1 light
# notes: as for B1
# B14: GpH7-A5/GpH7-B3 variant S267_16H/GpL16-k0 (antibody, human IgG1, kappa)
# heavy 1: not shown
# heavy 2: not shown
# light: B1 light
# notes: as for B1
# B15: GpH7-A5/GpH7-B3 variant V266_05P/GpL16-k0 (antibody, human IgG1, kappa)
# heavy 1: not shown
# heavy 2: not shown
# light: B1 light
# notes: as for B1
# B16: GpH7-A5/GpH7-B3 variant N325_01G/GpL16-k0 (antibody, human IgG1, kappa)
# heavy 1: not shown
# heavy 2: not shown
# light: B1 light
# notes: Heterodimerized IgG1 antibody; alteration in the GpH7-B3 chain only; also called He Ab
# B17: GpH7-A5/GpH7-B3 variant A327_08L/GpL16-k0 (antibody, human IgG1, kappa)
# heavy 1: not shown
# heavy 2: not shown
# light: B1 light
# notes: as for B16
# B18: GpH7-A5/GpH7-B3 variant A327_15Y/GpL16-k0 (antibody, human IgG1, kappa)
# heavy 1: not shown
# heavy 2: not shown
# light: B1 light
# notes: as for B16
# B19: GpH7-A5/GpH7-B3 variant A327_01G/GpL16-k0 (antibody, human IgG1, kappa)
# heavy 1: not shown
# heavy 2: not shown
# light: B1 light
# notes: as for B16
# B20: GpH7-A5/GpH7-B3 variant A327_16H/GpL16-k0 (antibody, human IgG1, kappa)
# heavy 1: not shown
# heavy 2: not shown
# light: B1 light
# notes: as for B16
# B21: GpH7-A5/GpH7-B3 variant A327_03V/GpL16-k0 (antibody, human IgG1, kappa)
# heavy 1: not shown
# heavy 2: not shown
# light: B1 light
# notes: as for B16
# B22: GpH7-A5/GpH7-B3 variant A327_04F/GpL16-k0 (antibody, human IgG1, kappa)
# heavy 1: not shown
# heavy 2: not shown
# light: B1 light
# notes: as for B16
# B23: GpH7-A5/GpH7-B3 variant A327_07I/GpL16-k0 (antibody, human IgG1, kappa)
# heavy 1: not shown
# heavy 2: not shown
# light: B1 light
# notes: as for B16
# B24: GpH7-A5/GpH7-B3 variant A327_10E/GpL16-k0 (antibody, human IgG1, kappa)
# heavy 1: not shown
# heavy 2: not shown
# light: B1 light
# notes: as for B16
# B25: GpH7-A5/GpH7-B3 variant K326_03V/GpL16-k0 (antibody, human IgG1, kappa)
# heavy 1: not shown
# heavy 2: not shown
# light: B1 light
# notes: as for B16
# B26: GpH7-A5/GpH7-B3 variant A327_20W/GpL16-k0 (antibody, human IgG1, kappa)
# heavy 1: not shown
# heavy 2: not shown
# light: B1 light
# notes: as for B16
# B27: GpH7-A5/GpH7-B3 variant A327_18N/GpL16-k0 (antibody, human IgG1, kappa)
# heavy 1: not shown
# heavy 2: not shown
# light: B1 light
# notes: as for B16
# B28: GpH7-A5/GpH7-B3 variant A327_14T/GpL16-k0 (antibody, human IgG1, kappa)
# heavy 1: not shown
# heavy 2: not shown
# light: B1 light
# notes: as for B16
# B29: GpH7-A5/GpH7-B3 variant A327_09D/GpL16-k0 (antibody, human IgG1, kappa)
# heavy 1: not shown
# heavy 2: not shown
# light: B1 light
# notes: as for B16
# Molecular target: T1, FcγRIIa R (human, UniProt P12318 34-217)
# T1 construct: extracellular domain; also called FcgRIIa R type; 2aR; not shown: His tag at the C terminus
# T1 sequence (looked up): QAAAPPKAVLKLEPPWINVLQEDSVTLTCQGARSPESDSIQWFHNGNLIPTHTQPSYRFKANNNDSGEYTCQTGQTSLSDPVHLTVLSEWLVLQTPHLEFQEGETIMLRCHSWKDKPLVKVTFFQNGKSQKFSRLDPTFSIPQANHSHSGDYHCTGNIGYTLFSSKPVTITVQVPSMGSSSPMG
# Test: SPR; He/Con_2aR divided by He/Con_2b (FcγRIIa R over FcγRIIb)
row,Binder,He_2aR/2b
1,B1,0.58 ratio
2,B2,0.6 ratio
3,B3,0.77 ratio
4,B4,0.32 ratio
5,B5,0.79 ratio
6,B6,-5.55 ratio
7,B7,0.46 ratio
8,B8,0.78 ratio
9,B9,0.62 ratio
10,B10,0.56 ratio
11,B11,0.3 ratio
12,B12,0.8 ratio
13,B13,0.6 ratio
14,B14,0.77 ratio
15,B15,-8.33 ratio

# Molecular target: T2, FcγRIIIa extracellular domain with C-terminal His tag (human, UniProt P08637 17-208)
# T2 construct: extracellular domain; also called FcgRIIIa; 3a; not shown: His tag at the C terminus
# T2 sequence (P08637 17-208): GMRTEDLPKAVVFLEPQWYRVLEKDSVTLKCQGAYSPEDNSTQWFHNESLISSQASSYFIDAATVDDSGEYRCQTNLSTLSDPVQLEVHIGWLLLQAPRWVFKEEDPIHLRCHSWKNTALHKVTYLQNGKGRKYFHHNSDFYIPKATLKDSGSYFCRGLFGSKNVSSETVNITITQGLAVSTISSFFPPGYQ
# Test: SPR (Biacore); He/Con_3a divided by He/Con_2b (FcγRIIb)
row,Binder,He_3a/2b (IIIa/IIb)
1,B16,0.28 ratio
2,B17,0.67 ratio
3,B18,0.77 ratio
4,B19,0.63 ratio
5,B20,0.69 ratio
6,B21,0.48 ratio
7,B22,0.72 ratio
8,B23,0.33 ratio
9,B24,0.49 ratio
10,B25,0.7 ratio
11,B26,0.65 ratio
12,B27,0.54 ratio
13,B28,0.46 ratio
14,B29,0.49 ratio

# Molecular target: T1, FcγRIIa R
# Test: SPR, relative to GpH7-A5/GpH7-B3/GpL16-k0
row,Binder,He/Con_2aR
1,B1,111 control = 100
2,B2,142 control = 100
3,B3,44.4 control = 100
4,B4,3.6 control = 100
5,B5,120 control = 100
6,B6,-5.6 control = 100
7,B7,175 control = 100
8,B8,81.9 control = 100
9,B9,135 control = 100
10,B10,173 control = 100
11,B11,3.6 control = 100
12,B12,107 control = 100
13,B13,150 control = 100
14,B14,50.6 control = 100
15,B15,-2.9 control = 100

# Molecular target: T3, FcγRIIb (human, UniProt P31994 43-217)
# T3 construct: extracellular domain; also called FcgRIIb; 2b; not shown: His tag at the C terminus
# T3 sequence (looked up): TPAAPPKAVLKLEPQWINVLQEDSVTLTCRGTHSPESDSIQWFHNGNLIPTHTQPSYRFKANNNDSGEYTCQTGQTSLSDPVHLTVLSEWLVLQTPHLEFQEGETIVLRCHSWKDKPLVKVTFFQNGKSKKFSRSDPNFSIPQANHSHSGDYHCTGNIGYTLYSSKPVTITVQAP
# Test: SPR, relative to GpH7-A5/GpH7-B3/GpL16-k0
row,Binder,He/Con_2b
1,B1,192 control = 100
2,B2,236 control = 100
3,B3,57.6 control = 100
4,B4,11.3 control = 100
5,B5,152 control = 100
6,B6,1 control = 100
7,B7,379 control = 100
8,B8,104 control = 100
9,B9,218 control = 100
10,B10,310 control = 100
11,B11,12.2 control = 100
12,B12,134 control = 100
13,B13,251 control = 100
14,B14,65.9 control = 100
15,B15,0.4 control = 100

# Molecular target: T4, FcγRIIb extracellular domain with C-terminal His tag (human, UniProt P31994 43-217)
# T4 construct: extracellular domain; also called FcgRIIb; 2b; not shown: His tag at the C terminus
# T4 sequence (looked up): T3 sequence (looked up)
# Test: SPR (Biacore), FcγR as analyte over captured antibody; GpH7-A5/GpH7-B3/GpL16-k0 = 100
# Description: (§1) The heterodimerized antibodies He Abs in which one of the H chains was introduced with an alteration were assayed for their binding activities to each activating FcγR and inhibitory FcγR according to the method described in Example 4. […] The activating FcγRs in FIGS. 26, 27, 28, and 29 are FcγRIa, FcγRIIa (R), FcγRIIa (H), and FcγRIIIa, respectively.
# (§2) Analysis of interaction between objective antibody and the FcγR was carried out using Biacore T100 (GE Healthcare). HBS-EP+ (GE Healthcare) was used as the running buffer, and the measurement temperature was set to 25° C. Chips produced by immobilizing the antigen peptide by the amine coupling method to a Series S Sencor Chip CM5 (GE Healthcare), or alternatively, chips produced by allowing preliminarily biotinylated antigen peptides to interact with and immobilize onto a Series S Sensor Chip SA (certified) (GE Healthcare) were used. Antibodies of interest were captured onto an antigen peptide-immobilized chip, and allowed to interact to each FcγR diluted with running buffer. To regenerate and repeatedly use the chip, the antibodies captured on the chip were washed off by reacting 10 mM glycine-HCl, pH 1.5.
row,Binder,He/Con_2b
1,B16,101 % of control
2,B17,63.1 % of control
3,B18,60.8 % of control
4,B19,116 % of control
5,B20,63.5 % of control
6,B21,94.7 % of control
7,B22,63.7 % of control
8,B23,127 % of control
9,B24,140 % of control
10,B25,175 % of control
11,B26,78.8 % of control
12,B27,113 % of control
13,B28,89.4 % of control
14,B29,172 % of control

# Molecular target: T2, FcγRIIIa extracellular domain with …
# Test: as above
# Description: as §1, §2
row,Binder,He/Con_3a
1,B16,28 % of control
2,B17,42 % of control
3,B18,46.8 % of control
4,B19,72.4 % of control
5,B20,43.7 % of control
6,B21,45.8 % of control
7,B22,46.2 % of control
8,B23,42.4 % of control
9,B24,68.6 % of control
10,B25,122 % of control
11,B26,51.2 % of control
12,B27,61.1 % of control
13,B28,41.4 % of control
14,B29,83.7 % of control
